In patent US20220403048A1 (CANCER RESEARCH TECHNOLOGY, published 2022):
Read-outs that look alike come from different tables or passages of the source.

T1: THP-1 lysate derived human trimeric ARG2 (human, UniProt P78540 23-354, limits assumed)
T1 sequence (looked up): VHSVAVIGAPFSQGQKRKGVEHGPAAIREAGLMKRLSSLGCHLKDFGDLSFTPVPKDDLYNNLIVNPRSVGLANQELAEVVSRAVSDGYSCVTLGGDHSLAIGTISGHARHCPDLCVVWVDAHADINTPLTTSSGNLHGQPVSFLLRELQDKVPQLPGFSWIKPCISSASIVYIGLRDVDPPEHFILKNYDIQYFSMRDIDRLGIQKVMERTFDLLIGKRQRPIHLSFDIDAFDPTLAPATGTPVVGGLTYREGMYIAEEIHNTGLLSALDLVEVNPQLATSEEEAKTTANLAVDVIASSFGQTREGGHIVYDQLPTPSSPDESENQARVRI

T2: recombinant human trimeric ARG2 enzyme (construct not given) (human, UniProt P78540 23-354)
T2 sequence (looked up): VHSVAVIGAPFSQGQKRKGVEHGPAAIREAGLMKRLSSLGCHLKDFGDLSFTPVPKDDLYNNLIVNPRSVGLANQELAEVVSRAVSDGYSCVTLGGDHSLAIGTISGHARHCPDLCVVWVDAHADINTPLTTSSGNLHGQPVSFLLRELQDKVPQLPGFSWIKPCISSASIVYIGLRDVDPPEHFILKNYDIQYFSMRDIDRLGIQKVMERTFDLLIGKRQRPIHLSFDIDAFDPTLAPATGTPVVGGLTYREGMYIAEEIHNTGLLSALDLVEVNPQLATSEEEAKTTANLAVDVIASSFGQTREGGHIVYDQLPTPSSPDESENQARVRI


Tests used:
Assay in all cases: cell-based or functional assay
[1] = biological target: T1, THP-1 lysate derived human trimeric ARG2
[2] = biological target: T2, recombinant human trimeric ARG2 enzyme …
[3] = biological target: T1, THP-1 lysate derived human trimeric ARG2; remark: listed apart in the source
[4] = biological target: T2, recombinant human trimeric ARG2 enzyme …; remark: listed apart in the source

| Binder | THP-1 lysate ARG2 EIA IC50 [1] [nM] | EC50, In Presence of rhARG2 (T cell proliferation) [2] [nM] | Maximum % Proliferation, In Presence of rhARG2 [2] [%] | IC50 (M) THP-1 ARG2 (healthy human plasma) [3] [M] | IC50 (M) THP-1 ARG2 (no plasma) [3] [M] | EC50, In Presence of rhARG2 (T cell proliferation) [4] [nM] | Maximum % Proliferation, In Presence of rhARG2 [4] [%] |
| --- | --- | --- | --- | --- | --- | --- | --- |
| C0021144 recombinant human IgG1 (antibody, V domains shown) VH: EVQLLESGGGLVQPGGSLRLSCAASGFTFRYDYHVWVRQAPGKGLEWVSAISGSGGSTYYADSVKGRFTISRDNSKNTLYLQMNSLRAEDTAVYYCARLRADLGLYMDLWGRGTLVTVSS VL: QSVLTQPPSVSAAPGQKVTVSCSGSSSNIGNHHVSWYQQLPGTAPKLLIYDTTVLSSGVPDRFSGSKSGTSATLGITGLQTGDEADYYCGTWDELTSNLVFGGGTKLTVL | 10.9 | – | – | – | – | – | – |
| C0021155 recombinant human IgG1 (antibody, V domains shown) VH: EVQLLESGGGLVQPGGSLRLSCEASGFTFRYDYHVWVRQAPGKGLEWVSAISGSGGSTYYADPVKGRFTISRDNSKNTLYLQMNSLRAEDTAVYYCARLRADLGLYMDLWGRGTLVTVSS VL: RSVLTQPPSVSAAPGQKVTISCSGSSSNIGNHYVSWYQQLPGTAPKLLIYDTTVLSSGIPDRFSGSKSGTSATLGITGLQTGDEADYYCGTWDELTSNLVFGGGTRLTVL | 9.64 | – | – | – | – | – | – |
| C0021180 recombinant human IgG1 (antibody, V domains shown) VH: EVQLLESGGGLVQPGGSLRLSCAASGFTFRYEVAAWVRQAPGKGLEWVSAISGPIPKGYYADSVKGRFTISRDNSKNTLYLQMNSLRAEDTAVYYCARLRADLGLYMDLWGRGTLVTVSS VL: QSVLTQPPTVSAAPGRKVTISCSGSSSNIGDHHVSWYQQLPGAAPKLLIYDTDHMASGIPDRFSGSRSGTSATLGITGLQTGDEADYYCGTWDSSLSALVFGGGTKLTVL | 4.59 | 137 | 91 | – | – | – | – |
| C0021177 recombinant human IgG1 (antibody, V domains shown) VH: EVQLLESGGGLVQPGGSLRLSCAASGFTFRYEVAAWVRQAPGKGLEWVSAISGPAPKGYYADSVKGRFTISRDNSKNTLYLQMNSLRAEDTAVYYCARLRADLGLYMDLWGRGTLVTVSS VL: QSELTQPPTASAAPGQKVTISCSGSSSNIGNHYVSWYQQLPGTAPKLLIYDTTVLSSGIPDRFSGSKSGTSATLGITGLQTGDEADYYCGTWDELTSNLVFGGGTKLTVL | 5.17 | 86 | 84 | – | – | – | – |
| C0021133 recombinant human IgG1 (antibody, V domains shown) VH: EVQLLESGGGLVQPGGSLRLSCAASGFTFRYDHHVWVRQAPGKGLEWVSAISGSGGSTYYADSVKGRFTISRDNSKNTLYLQMNSLRAEDTAVYYCARLRADLGLYMDLWGRGTLVTVSS VL: QSVLTQPPSVSAAPGQKVTVSCSGSSSNIGNHYVSWYQQLPGTAPKLLIYDTTVLSSGIPDRFSGSKSGTSATLGITGLQTGDEADYYCGTWDELTSNLVFGGGTKLTVL | 7.38 | – | – | 3.7e-09 | 6.68e-09 | 101 | 73 |
| C0021022 recombinant human IgG1 (antibody, V domains shown) VH: EVQLLESGGGLVQPGGSLRLSCAASGFTFSSYAMSWVRQAPGKGPEWVSAISGFSPYYADSVKGRFTISRDNSKNTLYLQMNSLRAEDTAVYYCARLRADLGLYMDLWGRGTLVTVSS VL: QSVLTQPPSVSAAPGQKVTISCSGSSSNIGNHYVSWYQQLPGTAPKLLIYDNSERPSGIPDRFSGSKSGTSATLGITGLQTGDEADYYCGTWDSSLSALVFGGGTKLTVL | – | – | – | 2.71e-09 | 5.81e-09 | 132 | 77 |
| C0021092 recombinant human IgG1 (antibody, V domains shown) VH: EVQLLESGGGLVQPGGSLRLSCAASGFTFSRYAMSWVRQAPGKGLEWVSAHTHSPGSTYYADSVKGRFTISRDNSKNTLYLQMNSLRAEDTAVYYCARLRADLGLYMDLWGRGTLVTVSS VL: QSVLTQPPSVSAAPGQKVTISCSGSSSNIGNHYVSWYQQLPGTAPKLLIYNSVARPSGIPDRFSGSKSGTSATLGITGLQTGDEADYYCGTWDSSLSALVFGGGTKLTVL | – | – | – | 2.82e-09 | 6.56e-09 | 116 | 77 |
| C0021065 recombinant human IgG1 (antibody, V domains shown) VH: EVQLLESGGGLVQPGGSLRLSCAASGFTFSSYAMSWVRQAPGKGPEWVSAISGFSPYYADSVKGRFTISRDNSRNTLYLQMNSLRAEDTAVYYCARLRADLGLYMDLWGRGTLVTVSS VL: QSVLTQPPSVSAAPGQKVTISCSGSSSNIGNHYVSWYQQLPGTAPKLLIYDTDHMASGIPDRFSGSKSGTSATLGITGLQTGDEADYYCGTWDSSLSALVFGGGTKLTVL | – | – | – | 2.98e-09 | 5.99e-09 | 136 | 87 |

Now from value to binder:

| THP-1 lysate ARG2 EIA IC50 [1] [nM] | EC50, In Presence of rhARG2 (T cell proliferation) [2] [nM] | Maximum % Proliferation, In Presence of rhARG2 [2] [%] | IC50 (M) THP-1 ARG2 (healthy human plasma) [3] [M] | IC50 (M) THP-1 ARG2 (no plasma) [3] [M] | EC50, In Presence of rhARG2 (T cell proliferation) [4] [nM] | Maximum % Proliferation, In Presence of rhARG2 [4] [%] | Binder |
| --- | --- | --- | --- | --- | --- | --- | --- |
| 6.93 | – | – | – | – | – | – | C0021181 recombinant human IgG1 (antibody, V domains shown) VH: EVQLLESGGGLVRPGGSLRLSCAASEFTFRYDYHVWVRQAPGKGLEWVSAISGSGGSTYYADSVKSRFTISRDNSKNTLYLQMNSLRAEDTAVYYCARLRADLGLYMDLWGRGTLVTVSS VL: QSVLTQPPSVSAAPGQKVAVSCSGSSSNIGSHYVSWYQQLPGTAPKLLIYDNSERTSGIPDRFSGSKSGTSATLGITGLQTGDEADYYCGTWDELTSNLVFGGGTRLTVL |
| 5.81 | 149 | 110 | 2.9e-09 | 6.79e-09 | 113 | 83 | C0021061 recombinant human IgG1 (antibody, V domains shown) VH: EVQLLESGGGLVQPGGSLRLSCAASGFTFSSYAMSWVRQAPGKGLEWVSAKPTDAGSTYYADSVKGRFTISRDNSKNTLYLQMNSLRAEDTAVYYCARLRADLGLYMDLWGRGTLVTVSS VL: QSVLTQPPSVSAAPGQKVTISCSGSSSNIGNHYVSWYQQLPGTAPKLLIYNTVYPKSGIPDRFSGSKSGTSATLGITGLQTGDEADYYCGTWDSSLSALVFGGGTKLTVL |
| – | – | – | 2.02e-09 | 5.75e-09 | 111 | 67 | C0021139 recombinant human IgG1 (antibody, V domains shown) VH: EVQLLESGGGLVQPGGSLRLSCAASGFTFQYDYQVWVRQAPGKGLEWVSAISGSGGSTYYADSVKGRFTISRDNSKNTLYLQMNSLRAEDTAVYYCARLRADLGLYMDLWGRGTLVTVSS VL: QSVLTQPPSVSAAPGQKVTISCSGSSSNIGNHYVSWYQQLPGTAPKLLIYDNSERTSGIPDRFSGSKSGTSATLGITGLQTGDEADYYCGTWDELTSNLVFGGGTKLTVL |
